Article doi:10.1101/2024.03.27.587050

Assays:
[1] = target: Chaetomium thermophilum NAT10 (CtNAT10), E.coli produced recombinant (Chaetomium thermophilum); assay: mass photometry
[2] = target: Chaetomium thermophilum NAT10 (CtNAT10), Sf9 produced recombinant (Chaetomium thermophilum); assay: mass photometry

Substance | stoichiometry N [1] | stoichiometry N [2]
Chaetomium thermophilum NAT10 (CtNAT10), E.coli produced recombinant (enzyme) | 2 | –
Chaetomium thermophilum NAT10 (CtNAT10), Sf9 produced recombinant (enzyme) | – | 2
